Like-named read-outs stand apart in the source and are kept apart here.
Experiments:
[1] = target: NKG2D (in the affinity measurement) (UniProt O54709)
NKG2D (Homo sapiens) [2] = target: NKG2D (Homo sapiens) (UniProt P26718); details: cited from earlier work
NKG2D (Homo sapiens) [3] = target: NKG2D (Homo sapiens) (UniProt P26718); details: cited from earlier work; remark: listed apart in the source

Chain of UniProt O54709 (O54709 whole entry): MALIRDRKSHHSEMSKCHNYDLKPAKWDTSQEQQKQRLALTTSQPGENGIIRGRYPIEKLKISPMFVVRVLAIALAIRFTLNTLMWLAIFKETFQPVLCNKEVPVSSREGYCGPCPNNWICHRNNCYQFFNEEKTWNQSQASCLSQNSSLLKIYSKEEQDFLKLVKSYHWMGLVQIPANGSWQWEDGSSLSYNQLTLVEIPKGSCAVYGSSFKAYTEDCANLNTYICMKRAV
Chain of UniProt P26718 (P26718 whole entry): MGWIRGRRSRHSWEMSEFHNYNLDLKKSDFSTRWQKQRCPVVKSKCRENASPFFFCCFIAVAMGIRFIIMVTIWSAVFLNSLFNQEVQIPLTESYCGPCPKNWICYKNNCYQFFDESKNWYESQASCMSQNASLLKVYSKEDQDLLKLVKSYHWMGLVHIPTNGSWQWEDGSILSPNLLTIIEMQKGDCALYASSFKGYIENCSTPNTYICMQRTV

| Substance | Kd [1] [nM] | further results |
| --- | --- | --- |
| secMULT1 (secreted ectodomain fragment of HA-MULT1) (domain or fragment) | 19 | – |
| MICA (from UniProt Q29983) | – | Kd (NKG2D (Homo sapiens) [2]): 1000 nM |
| shed HA-MULT1 (domain or fragment) | 13 | – |
| MICB (from UniProt Q29980) | – | Kd (NKG2D (Homo sapiens) [3]): 1000 nM |

Source: PMC4856222
